For this assay, the target named is Ankyrin and SOCS Box-containing protein-10 (Asb10), rat, FLAG-tagged, expressed from adenovirus (Ad-Asb10) (rat). Briefly: co-IP; NRVMs overexpressing Asb10; lysates incubated with antibody and Protein A&G magnet beads overnight at 4 °C, washed 5 times with 0.5% PBST; western blot of candidate interacting proteins (Fig. 3C). On the technique in general: Immunoblotting shows a protein as a band on a membrane.

With “HSC70, endogenous in NRVMs (from UniProt P63018 1-646) (natural protein)”, the fold weaker binding than HSP70 with Asb10 was determined as 10 fold.
